In patent US8133683B2, “Methods for detecting biomolecules in a sample” (Taipei Medical University, priority 2009, dated 2012):
Entries after “also recorded” stand apart in the source; their conditions may differ. Primed or numbered codes have the meaning given here. Ends that are not written are not given here. * marks the point of attachment. FITC = O=C1OC2(c3ccc(O)cc3Oc3cc(O)ccc32)c2ccc(NC(=S)*)cc21; FITC′ = fluorescein isothiocyanate label

How the values were obtained:
[1] = system: anti-KY15 antibody; test: Charcoal-sorbent peptide binding assay (CPBA), detecting anti-KY15 antibody; details: FIG. 2B, anti-KY15 rabbit antiserum
Procedure: (§1) Rabbit sera (30 μl/well) in microplate were 2-fold serially diluted in PBS buffer (137 mM NaCl, 2.7 mM KCl, 10 mM Na2HPO4, 2 mM KH2PO4, pH 7.4). After an aliquot of 30 μl of freshly prepared reagent-A (6 μM FITC-KY15, 100 mM Hepes-pH 7.5, and 2 mM EDTA) was added to each well, the microplate was incubated at 37° C. for 50 minutes. An aliquot of 60 μl of reagent B (0.5 M Hepes-pH 8.0, and 2 mM EDTA) was then added to each well to adjust pH to 8.0 for optimal fluorescence detection. To remove all the free fluorescent peptides, MD-Charcoal suspension (200 μl per well) was added, and the mixture was incubated at room temperature for 5 minutes. […] The binding capacity of antiserum for the fluorescent peptide probe was expressed as fluorescence intensity per well. All experiments were performed in triplicates for each datum point and the data were presented as means±SD.

[2] = system: anti-FF15 antiserum; test: CPBA, control serum anti-FF15 antiserum; format: binding, rabbit; details: FIG. 2B
Procedure: as §1

[3] = CPBA, control non-immune rabbit serum; format: binding; details: FIG. 2B
Procedure: as §1

[4] = target: T1, human serum albumin (HSA) (Homo sapiens, UniProt P02768); test: CPBA, detecting HSA; format: binding; details: FIG. 4
T1 construct: purchased Sigma-Aldrich A3782
Procedure: (§2) The stock solutions of HSA, ovalbumin, and BGG were prepared as 125 μg/ml in HBS buffer (10 mM Hepes-pH 7.0, and 0.15 M NaCl). Aliquots of 30 μl of each protein placed in microplate wells were 2-fold serial diluted in HBS buffer. After an aliquot of 30 μl of freshly prepared reagent-A (6 μM FITC-RD18/FITC-KY15, 100 mM Hepes-pH 7.5, and 2 mM EDTA) was added to each well, the microplate was incubated at 37° C. for 30 minutes. An aliquot of 60 μl of reagent B (0.5 M Hepes-pH 8.0, and 2 mM EDTA) was then added to each well to adjust pH to 8.0 for optimal fluorescence detection. To remove all the free fluorescent peptides, MD-Charcoal suspension (200 μl per well) was added and incubated at room temperature for 5 minutes. […] Background level of fluorescence intensities was measured by replacing protein samples with HBS buffer. The binding capacities of antigens for the fluorescent peptide probes were expressed as net fluorescence intensity per well. All experiments were performed at least in triplicates for each datum point and the data were presented as means±SD.

[5] = Capturing capacity and rate of MD-Charcoal for FITC-labeled molecules; details: for Remaining fluorescence intensities: 3 μM in 60 μl, Ex485/Em535, Gain 35, means±SD (n=3)
Procedure: Aliquots of FITC-labeled molecules (3 μM in 60 μl) mixed with equal volume of reagent B (2 mM EDTA, 0.5 M Hepes-pH 8.0) were treated with MD-Charcoal (200 μl/well) at room temperature for 1, 5, or 10 minutes.
Data were analyzed by one-way ANOVA and Tukey-HSD multiple range test, and presented as means±SD (n=3). Different successive superscript represents significant difference at p<0.05. The background value from empty well served as blank.

[6] = target: T2, ovalbumin (Gallus gallus, UniProt P01012); test: CPBA, control protein ovalbumin; format: binding, chicken; details: FIG. 4
T2 construct: ovalbumin (#A5503; from chicken egg white; 99% in purity); purchased Sigma-Aldrich A5503; host or cells: chicken egg white
T2 sequence (P01012 1-386): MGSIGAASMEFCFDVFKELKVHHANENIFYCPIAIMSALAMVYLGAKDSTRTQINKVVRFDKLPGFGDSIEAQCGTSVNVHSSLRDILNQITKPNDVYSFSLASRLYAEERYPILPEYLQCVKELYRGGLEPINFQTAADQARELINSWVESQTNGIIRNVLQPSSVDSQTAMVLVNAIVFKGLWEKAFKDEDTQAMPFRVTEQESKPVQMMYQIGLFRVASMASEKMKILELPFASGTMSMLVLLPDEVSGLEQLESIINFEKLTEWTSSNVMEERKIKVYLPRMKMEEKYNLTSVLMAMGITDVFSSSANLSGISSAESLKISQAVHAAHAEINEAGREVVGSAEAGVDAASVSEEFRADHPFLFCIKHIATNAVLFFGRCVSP
Procedure: as §2

[7] = system: bovine gamma globulin (BGG); test: CPBA, control protein bovine gamma globulin; format: binding; details: FIG. 4
Procedure: as §2

| Binding of peptide probe with HSA [4] | Specificity for albumin compared to control proteins, ovalbumin and bovine gamma globulin [4] | Interaction of ovalbumin with peptide probe [6] | Substance | Binding of peptide probe with anti-KY15 antibody [1] | Affinity of anti-FF15 antiserum for the peptide probe [2] | Affinity of non-immune rabbit serum for the peptide probe [3] | Remaining fluorescence intensities (% of No Treatment) ([5]; MD-Charcoal treatment 1 min) | Remaining fluorescence intensities ([5]; MD-Charcoal treatment 1 min) | Remaining fluorescence intensities (% of No Treatment) ([5]; MD-Charcoal treatment 5 min) | Remaining fluorescence intensities ([5]; MD-Charcoal treatment 5 min) | Remaining fluorescence intensities (% of No Treatment) ([5]; MD-Charcoal treatment 10 min) | Remaining fluorescence intensities ([5]; MD-Charcoal treatment 10 min) | Interaction of bovine gamma globulin with peptide probe [7] |
| --- | --- | --- | --- | --- | --- | --- | --- | --- | --- | --- | --- | --- | --- |
| did not have affinity | – | – | FITC-KY15: N-terminal FITC-labeled peptide KY15, amino acid sequence KSVGRDEREDITYTY; peptide probe for anti-KY15 antibody ({FITC}-KSVGRDEREDITYTY) | specific binding; also recorded: can be detected | did not show affinity | did not show affinity | (0.6%) | 1,320 ± 410^2b | (0.5%) | 1,037 ± 33^2b | (0.4%) | 943 ± 29^2b | – |
| linearly dose-dependent | highly specific | did not interact | FITC-RD18: N-terminal FITC-labeled peptide RD18, amino acid sequence RLIEDICLPRWGCLWEDD; albumin-specific peptide probe ({FITC′}-RLIEDICLPRWGCLWEDD; cysteine pairing not given here) | – | – | – | – | – | – | – | – | – | did not interact |
